Data published in publication doi:10.1101/2025.01.26.634877 (bioRxiv, 2025).

Target: the molecule itself
Assay: light scattering

B1: Recombinant mouse neurofilament light chain protein, wild type (NfL-WT) (natural protein, UniProt P08551 1-543, looked up)
chain: MSSFGYDPYFSTSYKRRYVETPRVHISSVRSGYSTARSAYSSYSAPVSSSLSVRRSYSSSSGSLMPSLENLDLSQVAAISNDLKSIRTQEKAQLQDLNDRFASFIERVHELEQQNKVLEAELLVLRQKHSEPSRFRALYEQEIRDLRLAAEDATNEKQALQGEREGLEETLRNLQARYEEEVLSREDAEGRLMEARKGADEAALARAELEKRIDSLMDEIAFLKKVHEEEIAELQAQIQYAQISVEMDVSSKPDLSAALKDIRAQYEKLAAKNMQNAEEWFKSRFTVLTESAAKNTDAVRAAKDEVSESRRLLKAKTLEIEACRGMNEALEKQLQELEDKQNADISAMQDTINKLENELRSTKSEMARYLKEYQDLLNVKMALDIEIAAYRKLLEGEETRLSFTSVGSITSGYSQSSQVFGRSAYSGLQSSSYLMSARSFPAYYTSHVQEEQTEVEETIEATKAEEAKDEPPSEGEAEEEEKEKEEGEEEEGAEEEEAAKDESEDTKEEEEGGEGEEEDTKESEEEEKKEESAGEEQVAKKKD
modifications: native post-translational phosphorylation (varying levels, sites not given); N-terminal carbamoylation observed from the urea conditions
binding result: binds
